Source: US20180259527

Molecular target: T1, recombinant proclotting enzyme of Japanese horseshoe crab (His-tag free)
T1 chain: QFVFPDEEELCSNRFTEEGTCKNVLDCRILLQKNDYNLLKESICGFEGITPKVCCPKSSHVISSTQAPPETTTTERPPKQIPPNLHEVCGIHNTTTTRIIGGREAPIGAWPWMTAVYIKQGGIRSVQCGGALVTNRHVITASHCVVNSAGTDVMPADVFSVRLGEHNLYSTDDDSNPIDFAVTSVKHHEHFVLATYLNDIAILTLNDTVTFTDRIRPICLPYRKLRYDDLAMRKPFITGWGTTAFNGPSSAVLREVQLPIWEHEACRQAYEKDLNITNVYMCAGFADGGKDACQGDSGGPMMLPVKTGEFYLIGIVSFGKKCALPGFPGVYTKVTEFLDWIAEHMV

B1: His-tag-attached factor C (factor C of Japanese horseshoe crab of SEQ ID NO:2 with a 6xHis-tag at the C-terminus) (protein)
chain: RGVDLGLCDETRFECKCGDPGYVFNVPMKQCTYFYRWRPYCKPCDDLEAKDICPKYKRCQECKAGLDSCVTCPPNKYGTWCSGECQCKNGGICDQRTGACTCRDRYEGAHCEILKGCPLLPSDSQVQEVRNPPDNPQTIDYSCSPGFKLKGVARISCLPNGQWSSFPPKCIRECAKVSSPEHGKVNAPSGNMIEGATLRFSCDSPYYLIGQETLTCQGNGQWSGQIPQCKKLVFCPDLDPVNHAEHQVKIGVEQKYGQFPQGTEVTYTCSGNYFLMGFNTLKCNPDGSWSGSQPSCVKVADREVDCDSKAVDFLDDVGEPVRIHCPAGCSLTAGTVWGTAIYHELSSVCRAAIHAGKLPNSGGAVHVVNNGPYSDFLGSDLNGIKSEELKSLARSFRFDYVSSSTAGRSGCPDGWFEVEENCVYVTSKQRAWERAQGVCTNMAARLAVLDKDLIPSSLTETLRGKGLTTTWIGLHRLDAEKPFVWELMDRSNVVLNDNLTFWASGEPGNETNCVYLDIRDQLQPVWKTKSCFQPSSFACMMDLSDRNKAKCDDPGPLENGHATLHGQSIDGFYAGSSIRYSCEVLHYLSGTETVTCTTNGTWSAPKPRCIKVITCQNPPVPSYGSVEIKPPSRTNSISRVGSPFLRLPRLPLPLARAAKPPPKPRSSQPSTVDLASKVKLPEGHYRVGSRAIYTCESRYYELLGSQGRRCDSNGNWSGRPASCIPVCGRSDSPRSPFIWNGNSTEIGQWPWQAGISRWLADHNMWFLQCGGSLLNEKWIVTAAHCVTYSATAEIIDPSQFKIYLGKYYRDDSRDDDYVQVREALEIHVNPNYDPGNLNFDIALIQLKTPVTLTTRVQPICLPTDITTREHLKEGTLAVVTGWGLNENNTYSEMIQQAVLPVVAASTCEEGYKEADLPLTVTENMFCAGYKKGRYDACSGDSGGPLVFADDSRTERRWVLEGIVSWGSPSGCGKANQYGGFTKVNVFLSWIRQFIHHHHHH
rate of increase in the absorbance at 405 nm (absorbance change rate), proclotting enzyme-activating capacity: activation of the proclotting enzyme was not observed or hardly observed in the His-tag-attached factor C solution containing the equal amount of factor C (0.7 µL), and even in the solution containing about 7 times the amount of factor C (5 µL)

B2: His-tag-free recombinant factor C of Japanese horseshoe crab Tachypleus tridentatus (protein)
chain: RGVDLGLCDETRFECKCGDPGYVFNVPMKQCTYFYRWRPYCKPCDDLEAKDICPKYKRCQECKAGLDSCVTCPPNKYGTWCSGECQCKNGGICDQRTGACTCRDRYEGAHCEILKGCPLLPSDSQVQEVRNPPDNPQTIDYSCSPGFKLKGVARISCLPNGQWSSFPPKCIRECAKVSSPEHGKVNAPSGNMIEGATLRFSCDSPYYLIGQETLTCQGNGQWSGQIPQCKKLVFCPDLDPVNHAEHQVKIGVEQKYGQFPQGTEVTYTCSGNYFLMGFNTLKCNPDGSWSGSQPSCVKVADREVDCDSKAVDFLDDVGEPVRIHCPAGCSLTAGTVWGTAIYHELSSVCRAAIHAGKLPNSGGAVHVVNNGPYSDFLGSDLNGIKSEELKSLARSFRFDYVSSSTAGRSGCPDGWFEVEENCVYVTSKQRAWERAQGVCTNMAARLAVLDKDLIPSSLTETLRGKGLTTTWIGLHRLDAEKPFVWELMDRSNVVLNDNLTFWASGEPGNETNCVYLDIRDQLQPVWKTKSCFQPSSFACMMDLSDRNKAKCDDPGPLENGHATLHGQSIDGFYAGSSIRYSCEVLHYLSGTETVTCTTNGTWSAPKPRCIKVITCQNPPVPSYGSVEIKPPSRTNSISRVGSPFLRLPRLPLPLARAAKPPPKPRSSQPSTVDLASKVKLPEGHYRVGSRAIYTCESRYYELLGSQGRRCDSNGNWSGRPASCIPVCGRSDSPRSPFIWNGNSTEIGQWPWQAGISRWLADHNMWFLQCGGSLLNEKWIVTAAHCVTYSATAEIIDPSQFKIYLGKYYRDDSRDDDYVQVREALEIHVNPNYDPGNLNFDIALIQLKTPVTLTTRVQPICLPTDITTREHLKEGTLAVVTGWGLNENNTYSEMIQQAVLPVVAASTCEEGYKEADLPLTVTENMFCAGYKKGRYDACSGDSGGPLVFADDSRTERRWVLEGIVSWGSPSGCGKANQYGGFTKVNVFLSWIRQFI
rate of increase in the absorbance at 405 nm (absorbance change rate), proclotting enzyme-activating capacity: the His-tag-free factor C showed a remarkable proclotting enzyme-activating capacity irrespective of whether it was obtained by the viral method or by the stably expressing cell line method
